Results: patent US20120129720, “APTAMER THAT RECOGNIZES PEPTIDE” (KANAGAWA PREFECTURAL HOSPITAL ORGANIZATION, published 2012)

Legend:
[1] = molecular target: T1, His-MIF (His-tag/T7 gene 10 leader/Xpress-MIF fusion) (UniProt P14174 P14174:1-115); assay: SPR; same as shot47; details: MIF 115 aa, ATGen, stem-loop
T1 chain: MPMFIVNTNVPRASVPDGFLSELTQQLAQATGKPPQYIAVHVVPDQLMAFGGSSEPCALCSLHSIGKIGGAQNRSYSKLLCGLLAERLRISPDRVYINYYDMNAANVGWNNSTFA
Protocol: (§1) A molecular interaction between each of the RNA aptamers and each of fusion proteins, i.e., a binding ability of each of the RNA aptamers to each of the fusion proteins was analyzed using surface plasmon resonance. The analysis of the binding ability was performed using BiacoreX (GE Healthcare UK Ltd.) according to the instruction thereof. Specifically, first, polyadenine having 20 bases was added to the 3′-end of the RNA aptamer. Thus, polyadenine-added RNA aptamer was prepared. This was then heated at 95° C. for 5 minutes and rapidly cooled on ice. Biotinylated polythymine having 20 bases obtained by biotinylating the 5′-end of polythymine had been bound to a streptavidin chip (Sensor chip SA, GE Healthcare UK Ltd.). The polyadenine-added RNA aptamer was introduced into a flow cell on the streptavidin chip using a running buffer. At this stage, the polyadenine-added RNA aptamer was immobilized on the chip via the biotinylated polythymine by complementary binding between poly A of the polyadenine-added RNA aptamer and the biotinylated polythymine. […] Subsequently, HBS (Hepes Buffered Saline) containing the fusion protein with a predetermined concentration was introduced into the chip using a running buffer, and a signal (RU) was measured. […]
A binding ability of each of downsized RNA aptamers to His-MIF as a fusion protein was analyzed by the molecular interaction analysis. […]

[2] = molecular target: T1, His-MIF (His-tag/T7 gene 10 …); assay: SPR; 600 nM His-MIF; details: MIF 115 aa, ATGen
Protocol: (§2) A molecular interaction between each of the RNA aptamers and each of fusion proteins, i.e., a binding ability of each of the RNA aptamers to each of the fusion proteins was analyzed using surface plasmon resonance. The analysis of the binding ability was performed using BiacoreX (GE Healthcare UK Ltd.) according to the instruction thereof. Specifically, first, polyadenine having 20 bases was added to the 3′-end of the RNA aptamer. Thus, polyadenine-added RNA aptamer was prepared. This was then heated at 95° C. for 5 minutes and rapidly cooled on ice. Biotinylated polythymine having 20 bases obtained by biotinylating the 5′-end of polythymine had been bound to a streptavidin chip (Sensor chip SA, GE Healthcare UK Ltd.). The polyadenine-added RNA aptamer was introduced into a flow cell on the streptavidin chip using a running buffer. At this stage, the polyadenine-added RNA aptamer was immobilized on the chip via the biotinylated polythymine by complementary binding between poly A of the polyadenine-added RNA aptamer and the biotinylated polythymine. The polyadenine-added RNA aptamer was caused to bind to the biotinylated polythymine until a resonance unit (RU) (resonance unit; 1 RU=1 pg/mm²) reaches 700 RU. Subsequently, HBS (Hepes Buffered Saline) containing the fusion protein with a predetermined concentration was introduced into the chip using a running buffer, and a signal (RU) was measured. The composition of the running buffer includes 10 mmol/L HEPES (4-(2-hydroxyethyl)-1-piperazine ethanesulfonic acid), 150 mmol/L sodium chloride, 0.1 mmol/L magnesium acetate, and 0.01% Tween (registered trademark) 20 (pH 7.2). As a control, an introduction of the fusion protein and a measurement of a signal were performed in the same manner as described above using a chip to which biotinylated polythymine had been bound, on which no polyadenine-added RNA aptamer had been immobilized.
A binding ability of each of the RNA pools in the respective rounds to His-MIF was analyzed by surface plasmon resonance in the same manner as in “1. (4) Molecular interaction analysis” of Example 1. […] N40 (control RNA) also was analyzed in the same manner as mentioned above.

[3] = molecular target: T1, His-MIF (His-tag/T7 gene 10 …); assay: SPR; 600 nM His-MIF; details: MIF 115 aa; ATGen
Protocol: as §2
A binding ability of each of these RNA aptamers to His-MIF was analyzed by surface plasmon resonance in the same manner as in “1. (4) Molecular interaction analysis” of Example 1.

[4] = molecular target: T1, His-MIF (His-tag/T7 gene 10 …); assay: SPR; 600 nM His-MIF; excellent binding; details: MIF 115 aa; ATGen
Protocol: as §1
A binding ability of each of these RNA aptamers to His-MIF was analyzed by surface plasmon resonance in the same manner as in “1. […]

[5] = molecular target: T1, His-MIF (His-tag/T7 gene 10 …); assay: SPR; 10 mM HEPES, 150 mM NaCl, 0.1 mM Mg acetate, 0.01% Tween 20, pH 7.2; RNA immobilised; details: MIF 115 aa; ATGen; label: biotin-T20 hybridised to tail; stem-loop
Protocol: as §1

GGGUAUAUUGGCGCCUUCGUGGAAUGUCAGUGCCUGG (ssRNA, 3' A20 tail for capture) [shot47sss]
binding result ([1]; label: biotin-T20 hybridised to tail (ELISA)): binds

B1: #733 (ssRNA)
RNA: GGGACGCUCACGUACGCUCACUUCCCUAGACCCUCCAGGUUACAGGCGCCGCCCGGAAUGUCAGUGCCUGGACGUGCAGU
modifications: 3' A20 tail for capture
binding signal [2]: 0.86 His-MIF/RNA bonds

B2: His_6 (ssRNA)
RNA: GGGACGCUCACGUACGCUCAGGUGUAUUGGAUUUGCUCCGAGGGUGUAGACCCCACAGAUUCAGUGCCUGGACGUGCAGU
modifications: 3' A20 tail for capture
binding result [3]: binds

B3: #47s (ssRNA)
RNA: GGGUACGCUCAGGUAUAUUGGCGCCUUCGUGGAAUGUCAGUGCCUGGACGUGCAGU
modifications: 3' A20 tail for capture
binding result [1]: binds

B4: His_2 (ssRNA)
RNA: GGGACGCUCACGUACGCUCAGGUGAAUUGGCCGCCGUUCUUUCCGUGGAAUGACGCGAUGUCAGUGCCUGGACGUGCAGU
modifications: 3' A20 tail for capture
binding result [3]: binds

B5: #713 (ssRNA)
RNA: GGGACGCUCACGUACGCUCACAACACUCGAAGGGUUUAUUGGCCCCACCAUGGUGGAAUGUCAGUGCCUGGACGUGCAGU
modifications: 3' A20 tail for capture
binding signal [2]: 0.88 His-MIF/RNA bonds

B6: His_1 (ssRNA)
RNA: GGGACGCUCACGUACGCUCAGGUGAACUGGUCCGCAUUUAGCUUUCUUAUUUGCGGGUAUUCAGUGCCUGGACGUGCAGU
modifications: 3' A20 tail for capture
binding result [4]: binds

B7: His_4 (ssRNA)
RNA: GGGACGCUCACGUACGCUCAUAAGGGUGUACUGGCGAUUGUUGGGACGCACUUCAAUUUGUCAGUGCCUGGACGUGCAGU
modifications: 3' A20 tail for capture
binding result [3]: binds

B8: shot47 (ssRNA)
RNA: GGGACGCUCACGUACGCUCACGUCCGAUCGAUACUGGUAUAUUGGCGCCUUCGUGGAAUGUCAGUGCCUGGACGUGCAGU
modifications: 3' A20 tail for capture
binding signal ([2]; label: biotin-T20 hybridised to tail, stem-loop): 1.88 His-MIF/RNA bonds
Kd [5]: 3.78 pM

B9: His_10 (ssRNA)
RNA: GGGACGCUCACGUACGCUCAUUAGCUUAGCUUCAUGCCCGGGUGUACUGGAGAUCUCUUAUCAGUGCCUGGACGUGCAGU
modifications: 3' A20 tail for capture
binding result [3]: binds

B10: His_3 (ssRNA)
RNA: GGGACGCUCACGUACGCUCAGGUGUACUGGCACUACUGAAAUUUCAUUUGAGUAGGUCUGUCAGUGCCUGGACGUGCAGU
modifications: 3' A20 tail for capture
binding result [3]: binds

B11: His_5 (ssRNA)
RNA: GGGACGCUCACGUACGCUCAGAACCCGUAUUGGUCACAGGUGGAUUGGUCUAUAUUGUUAUCAGUGCCUGGACGUGCAGU
modifications: 3' A20 tail for capture
binding result [3]: binds

B12: #704 (ssRNA)
RNA: GGGACGCUCACGUACGCUCAUGUUCCUUUGGGUUAUUGGCUCCUUGUUGACCAGGGGAUGUCAGUGCCUGGACGUGCAGU
modifications: 3' A20 tail for capture
binding signal [2]: 0.96 His-MIF/RNA bonds
